One assay has as its target NRP-1. As to the kind of experiment: competition of CPQPRPLC phage binding to immobilized NRP-1 by soluble peptide.
Another assay has as its target VEGFR-1. As to the kind of experiment: competition of CPQPRPLC phage binding to immobilized VEGFR-1 by soluble peptide.

Consider one substance from patent US20120028880A1, “VEGFR-1/NRP-1 TARGETING PEPTIDES” (priority 2007, published 2012).

Square brackets hold non-standard residues; d marks the D form. Ends that are not written are not given here.

Broadly, the IC50 is the concentration at which inhibition is half-maximal.

NRP-1, sequence (O14786 22-856): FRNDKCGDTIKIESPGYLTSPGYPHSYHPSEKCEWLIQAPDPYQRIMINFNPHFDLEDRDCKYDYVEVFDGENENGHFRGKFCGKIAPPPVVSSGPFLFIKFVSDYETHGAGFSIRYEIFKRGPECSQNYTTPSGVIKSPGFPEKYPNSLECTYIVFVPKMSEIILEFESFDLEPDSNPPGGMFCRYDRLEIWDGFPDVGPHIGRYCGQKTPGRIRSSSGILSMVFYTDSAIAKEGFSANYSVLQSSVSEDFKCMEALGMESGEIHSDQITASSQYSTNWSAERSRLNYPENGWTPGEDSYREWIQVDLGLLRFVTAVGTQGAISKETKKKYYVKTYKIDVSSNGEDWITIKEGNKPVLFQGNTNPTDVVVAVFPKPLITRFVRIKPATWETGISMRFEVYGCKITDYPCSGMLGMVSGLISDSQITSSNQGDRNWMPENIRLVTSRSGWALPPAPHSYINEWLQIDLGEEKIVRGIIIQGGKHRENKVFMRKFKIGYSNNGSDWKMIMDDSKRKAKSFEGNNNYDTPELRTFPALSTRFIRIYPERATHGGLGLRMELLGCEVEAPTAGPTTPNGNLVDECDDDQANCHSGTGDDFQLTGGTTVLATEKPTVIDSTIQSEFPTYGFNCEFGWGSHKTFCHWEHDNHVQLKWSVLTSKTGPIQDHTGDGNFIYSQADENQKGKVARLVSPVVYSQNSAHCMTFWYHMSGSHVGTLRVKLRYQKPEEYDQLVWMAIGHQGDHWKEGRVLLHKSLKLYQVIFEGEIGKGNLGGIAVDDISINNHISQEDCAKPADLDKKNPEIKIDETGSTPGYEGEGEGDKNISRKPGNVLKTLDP
VEGFR-1, sequence (P17948 27-758): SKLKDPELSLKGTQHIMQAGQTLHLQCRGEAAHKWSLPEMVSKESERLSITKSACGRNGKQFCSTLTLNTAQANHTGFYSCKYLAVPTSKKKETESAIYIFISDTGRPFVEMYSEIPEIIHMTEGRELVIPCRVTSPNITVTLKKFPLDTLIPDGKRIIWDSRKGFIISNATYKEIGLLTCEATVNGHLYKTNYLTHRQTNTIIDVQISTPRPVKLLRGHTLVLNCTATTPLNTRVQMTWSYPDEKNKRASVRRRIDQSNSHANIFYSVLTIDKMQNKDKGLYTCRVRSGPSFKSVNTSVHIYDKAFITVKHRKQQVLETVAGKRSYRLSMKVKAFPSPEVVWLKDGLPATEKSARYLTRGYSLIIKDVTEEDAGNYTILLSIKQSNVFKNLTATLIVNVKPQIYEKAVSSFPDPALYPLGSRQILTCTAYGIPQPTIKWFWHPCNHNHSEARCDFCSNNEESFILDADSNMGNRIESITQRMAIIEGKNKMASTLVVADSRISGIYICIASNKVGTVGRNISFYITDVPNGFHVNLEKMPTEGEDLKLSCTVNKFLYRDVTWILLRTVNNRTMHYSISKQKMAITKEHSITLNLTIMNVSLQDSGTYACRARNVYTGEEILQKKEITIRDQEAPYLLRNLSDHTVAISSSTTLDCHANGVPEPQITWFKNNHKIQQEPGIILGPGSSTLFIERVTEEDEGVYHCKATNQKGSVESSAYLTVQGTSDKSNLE

Turning to [dL]-[dP]-[dR], the IC50 with NRP-1 and with VEGFR-1 was 1 to 10 pM in each case.
